In patent US20240101668A1 (WUGEN, published 2024):
Values belong to the binder of their own block, whether it stands above or below them.

How the values were obtained:
huCLL1-K244-Avi-Tev-His = target: T1, huCLL1-K244-Avi-Tev-His (human, UniProt Q5QGZ9 65-265); experiment: BLI
T1 construct: extracellular domain
T1 sequence (looked up): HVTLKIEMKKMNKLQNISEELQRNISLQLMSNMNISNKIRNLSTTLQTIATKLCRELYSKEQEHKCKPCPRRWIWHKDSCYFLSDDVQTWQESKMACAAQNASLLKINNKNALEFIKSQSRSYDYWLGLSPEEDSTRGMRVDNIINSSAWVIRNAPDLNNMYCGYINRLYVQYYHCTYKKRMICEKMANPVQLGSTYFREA

huCLL1-Q244-Avi-Tev-His = target: T2, huCLL1-Q244-Avi-Tev-His (human, UniProt Q5QGZ9 65-265); experiment: BLI
T2 construct: extracellular domain; also called CLL-1 K244Q
T2 sequence (looked up): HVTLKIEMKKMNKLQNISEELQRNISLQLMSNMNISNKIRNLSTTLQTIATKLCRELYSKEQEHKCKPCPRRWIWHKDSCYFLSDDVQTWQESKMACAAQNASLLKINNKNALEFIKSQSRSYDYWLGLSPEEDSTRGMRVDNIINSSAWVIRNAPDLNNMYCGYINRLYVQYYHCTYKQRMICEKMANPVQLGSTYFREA

B1: Polypeptide No. 150 (scFv, V domains shown)
VH: QVQLVQSGAEVKKPGASVKVSCKASGYIFTSQYIHWVRQAPGQGLEWMGWINPNSGGTNYAQKFQGRVTMTRDTSTSTVYMELSSLRSEDTAVYYCARDPWGAYGGDAFDIWGQGTMVTVSS
VL: DIQMTQSPSSLSASVGDRVTITCRASQGISNNLNWYQQKPGKAPKLLIYDASHLDTGVPSRFSGSGSGTDFTLTISSLQPEDFATYYCQQNYSPPPTFGQGTRLEIKR
notes: scFv
- binding result (huCLL1-K244-Avi-Tev-His): binds
- binding result (huCLL1-Q244-Avi-Tev-His): binds

B2: Polypeptide No. 148 (scFv, V domains shown)
VH: QVQLVQSGAEVKKPGASVKVSCKASGGTFTTYGISWVRQAPGQGLEWMGWMNPFSDNTDYAQNFQGRVTMTRDTSTSTVYMELSSLRSEDTAVYYCARGTGDDAFDIWGQGTMVTVSS
VL: DIQMTQSPSSLSASVGDRVTITCRASQSISTWVAWYQQKPGKAPKLLIYAASSLQSGVPSRFSGSGSGTDFTLTISSLQPEDFATYYCQQSFSIPLTFGQGTKVEIKR
notes: scFv
- binding result (huCLL1-K244-Avi-Tev-His): binds
- binding result (huCLL1-Q244-Avi-Tev-His): binds

B3: Polypeptide No. 155 (scFv, V domains shown)
VH: QVQLVQSGAEVKKPGASVKVSCKASGYTFTSYDINWVRQAPGQGLEWMGWMNPSSGDSGYAQKFQGRVTMTRDTSTSTVYMELSSLRSEDTAVYYCARPERSDAFDIWGQGTTVTVSS
VL: DIQMTQSPSSLSASVGDRVTITCRASQSIGPWLAWYQQKPGKAPKLLIYDASNLEAGVPSRFSGSGSGTDFTLTISSLQPEDFATYYCQQSFSSPLTFGGGTKVEIKR
notes: scFv
- binding result (huCLL1-K244-Avi-Tev-His): binds
- binding result (huCLL1-Q244-Avi-Tev-His): binds

B4: Polypeptide No. 153 (scFv, V domains shown)
VH: QVQLVQSGAEVKKPGASVKVSCKASGGAFSSYALSWVRQAPGQGLEWMGWMNPNSGNTGYAQKFQGRVTMTRDTSTSTVYMELSSLRSEDTAVYYCAADWMIGGDAFDIWGQGTTVTVSS
VL: DIQMTQSPSSLSASVGDRVTITCRASQSISSWLAWYQQKPGKAPKLLIYDASRLQSGVPSRFSGSGSGTDFTLTISSLQPEDFATYYCQQSYGIPLTFGGGTKVEIKR
notes: scFv
- binding result (huCLL1-K244-Avi-Tev-His): binds
- binding result (huCLL1-Q244-Avi-Tev-His): binds

B5: Polypeptide No. 160 (scFv, V domains shown)
VH: QVQLVQSGAEVKKPGASVKVSCKASGGTFTSYDINWVRQAPGQGLEWMGWINPHSGGTNYAQKFQGRVTMTRDTSTSTVYMELSSLRSEDTAVYYCARLVGGDAFDIWGQGTMVTVSS
VL: DIQMTQSPSSLSASVGDRVTITCRASQSISSWLAWYQQKPGKAPKLLIYAASSLQGGVPSRFSGSGSGTDFTLTISSLQPEDFATYYCQQGYTTPLTFGPGTKVDIKR
notes: scFv
- binding result (huCLL1-K244-Avi-Tev-His): binds
- binding result (huCLL1-Q244-Avi-Tev-His): binds

B6: Polypeptide No. 151 (scFv, V domains shown)
VH: QVQLVQSGAEVKKPGASVKVSCKASGYTFTDYYIHWVRQAPGQGLEWMGWMNPNSGNTGYAQKFQGRVTMTRDTSTSTVYMELSSLRSEDTAVYYCARVDTADYMDVWGKGTLVTVSS
VL: DIQMTQSPSSLSASVGDRVTITCRASQGISSWLAWYQQKPGKAPKLLIYDASNLQTGVPSRFSGSGSGTDFTLTISSLQPEDFATYYCQQSYSTPLTFGQGTKVEIKR
notes: scFv
- binding result (huCLL1-K244-Avi-Tev-His): binds
- binding result (huCLL1-Q244-Avi-Tev-His): binds

B7: Polypeptide No. 158 (scFv, V domains shown)
VH: QVQLVQSGAEVKKPGASVKVSCKASGDSFSSYGISWVRQAPGQGLEWMGWINPKSGATTSAQKFQGRVTMTRDTSTSTVYMELSSLRSEDTAVYYCARSTAFDAFDIWGQGTTVTVSS
VL: DIQMTQSPSSLSASVGDRVTITCRASQSISSWLAWYQQKPGKAPKLLIYDASNLETGVPSRFSGSGSGTDFTLTISSLQPEDFATYYCQQSYSTPLTFGQGTKVEIKR
notes: scFv
- binding result (huCLL1-K244-Avi-Tev-His): binds
- binding result (huCLL1-Q244-Avi-Tev-His): binds

B9: Polypeptide No. 156 (scFv, V domains shown)
VH: QVQLVQSGAEVKKPGASVKVSCKASGYTFTGYFIHWVRQAPGQGLEWMGWMNPNSGNTGYAQKFQGRVTMTRDTSTSTVYMELSSLRSEDTAVYYCARGDYADWFDPWGQGTLVTVSS
VL: DIQMTQSPSSLSASVGDRVTITCRASQSISTWLAWYQQKPGKAPKLLIYDAFTLETGVPSRFSGSGSGTDFTLTISSLQPEDFATYYCQQSYSTPLTFGQGTKVEIKR
notes: scFv
- binding result (huCLL1-K244-Avi-Tev-His): binds
- binding result (huCLL1-Q244-Avi-Tev-His): binds

Next, values leading:

- binding result (huCLL1-K244-Avi-Tev-His): binds
- binding result (huCLL1-Q244-Avi-Tev-His): binds
B8: Polypeptide No. 149 (scFv, V domains shown)
VH: QVQLVQSGAEVKKPGASVKVSCKASGYTFTSYDINWVRQAPGQGLEWMGWMNPNSGNTGYAQKFQGRVTMTRDTSTSTVYMELSSLRSEDTAVYYCARELEGEWFDPWGQGTLVTVSS
VL: DIQMTQSPSSLSASVGDRVTITCRASQSISSYLNWYQQKPGKAPKLLIYSASNLQSGVPSRFSGSGSGTDFTLTISSLQPEDFATYYCQQAISFPLTFGQGTKVEIKR
notes: scFv

- binding result (huCLL1-K244-Avi-Tev-His): binds
- binding result (huCLL1-Q244-Avi-Tev-His): binds
B10: Polypeptide No. 159 (scFv, V domains shown)
VH: QVQLVQSGAEVKKPGASVKVSCKASGYSFTANYIHWVRQAPGQGLEWMGIINPSGGSTSYAQKFQGRVTMTRDTSTSTVYMELSSLRSEDTAVYYCARGNYGDYVEDWGQGTLVTVSS
VL: DIQMTQSPSSLSASVGDRVTITCRASQSISSWLAWYQQKPGKAPKLLIYDASNLETGVPSRFSGSGSGTDFTLTISSLQPEDFATYYCQQSYGTPLTFGGGTKVEIKR
notes: scFv

- binding result (huCLL1-K244-Avi-Tev-His): binds
- binding result (huCLL1-Q244-Avi-Tev-His): binds
B11: Polypeptide No. 163 (scFv, V domains shown)
VH: QVQLVQSGAEVKKPGASVKVSCKASGYTFTSYYMQWVRQAPGQGLEWMGWMNPNSGNTGYAQKFQGRVTMTRDTSTSTVYMELSSLRSEDTAVYYCARALYGDYLDIWGQGTTVTVSS
VL: DIQMTQSPSSLSASVGDRVTITCRASQPIATWLAWYQQKPGKAPKLLIYDTSSLQSGVPSRFSGSGSGTDFTLTISSLQPEDFATYYCQQSYSLPLGFGQGTKVEIKR
notes: scFv

- binding result (huCLL1-K244-Avi-Tev-His): binds
- binding result (huCLL1-Q244-Avi-Tev-His): binds
B12: Polypeptide No. 152 (scFv, V domains shown)
VH: QVQLVQSGAEVKKPGASVKVSCKASGGTFSTNAISWVRQAPGQGLEWMGWMNPNSGNTGYAQKFQGRVTMTRDTSTSTVYMELSSLRSEDTAVYYCAKEDYGGNFDYWGQGTLVTVSS
VL: DIQMTQSPSSLSASVGDRVTITCRASQSIGPWLAWYQQKPGKAPKLLIYDASNLQAGVPSRFSGSGSGTDFTLTISSLQPEDFATYYCQQSHSLPLTFGPGTKVDIKR
notes: scFv

- binding result (huCLL1-K244-Avi-Tev-His): binds
- binding result (huCLL1-Q244-Avi-Tev-His): binds
B13: Polypeptide No. 177 (scFv, V domains shown)
VH: QVQLVQSGAEVKKPGASVKVSCKASGYTFTSYYMHWVRQAPGQGLEWMGWMNPNSGNTGYAQKFQGRVTMTRDTSTSTVYMELSSLRSEDTAVYYCARSTYSDSFDYWGQGTLVTVSS
VL: DIQMTQSPSSLSASVGDRVTITCRASQSISNWLAWYQQKPGKAPKLLIYDASNLETGVPSRFSGSGSGTDFTLTISSLQPEDFATYYCQQSYSTPLTFGQGTKLEIKR
notes: scFv

- binding result (huCLL1-K244-Avi-Tev-His): binds
- binding result (huCLL1-Q244-Avi-Tev-His): binds
B14: Polypeptide No. 157 (scFv, V domains shown)
VH: QVQLVQSGAEVKKPGASVKVSCKASGYTFSDYYIHWVRQAPGQGLEWMGIINPSGGSTSYAQKFQGRVTMTRDTSTSTVYMELSSLRSEDTAVYYCARGMTDDAFDIWGQGTMVTVSS
VL: DIQMTQSPSSLSASVGDRVTITCRASQGISSWLAWYQQKPGKAPKLLIYDASNLETGVPSRFSGSGSGTDFTLTISSLQPEDFATYYCQQTYAIPLTFGGGTKLEIKR
notes: scFv

- binding result (huCLL1-K244-Avi-Tev-His): binds
- binding result (huCLL1-Q244-Avi-Tev-His): binds
B15: Polypeptide No. 146 (scFv, V domains shown)
VH: QVQLVQSGAEVKKPGASVKVSCKASGYTFSGHYMHWVRQAPGQGLEWMGWIDPNSGGTNYAQKFQGRVTMTRDTSTSTVYMELSSLRSEDTAVYYCARDYPFYGDNDAFDIWGQGTTVTVSS
VL: DIQMTQSPSSLSASVGDRVTITCRVSQGISSYLNWYQQKPGKAPKLLIYEASSLESGVPSRFSGSGSGTDFTLTISSLQPEDFATYYCQQSYSIPFTFGPGTKVDIKR
notes: scFv

- binding result (huCLL1-K244-Avi-Tev-His): binds
- binding result (huCLL1-Q244-Avi-Tev-His): binds
B16: Polypeptide No. 161 (scFv, V domains shown)
VH: QVQLVQSGAEVKKPGASVKVSCKASGYTFTSYDINWVRQAPGQGLEWMGMINPNSGGTSYAQKFQGRVTMTRDTSTSTVYMELSSLRSEDTAVYYCARELLGESFDYWGQGTLVTVSS
VL: DIQMTQSPSSLSASVGDRVTITCRASQGISSYLAWYQQKPGKAPKLLIYGASILQSGVPSRFSGSGSGTDFTLTISSLQPEDFATYYCQQSYSTSFTFGPGTKVDIKR
notes: scFv

- binding result (huCLL1-K244-Avi-Tev-His): binds
- binding result (huCLL1-Q244-Avi-Tev-His): binds
B17: Polypeptide No. 154 (scFv, V domains shown)
VH: QVQLVQSGAEVKKPGASVKVSCKASGGTFSSYGVTWVRQAPGQGLEWMGWINPNTGGTDYAQNFQGRVTMTRDTSTSTVYMELSSLRSEDTAVYYCAGEVGVGGYDAFDIWGQGTTVTVSS
VL: DIQMTQSPSSLSASVGDRVTITCRASQGISNWLAWYQQKPGKAPKLLIYAASSLQSGVPSRFSGSGSGTDFTLTISSLQPEDFATYYCQQSYSIPLTFGGGTKVEIKR
notes: scFv

- binding result (huCLL1-K244-Avi-Tev-His): binds
- binding result (huCLL1-Q244-Avi-Tev-His): binds
B18: Polypeptide No. 147 (scFv, V domains shown)
VH: QVQLVQSGAEVKKPGASVKVSCKASGYTFTSYHIHWVRQAPGQGLEWVGGIIPSGGSTSYAQKFQGRVTMTRDTSTSTVYMELSSLRSEDTAVYYCARGTNDDHYDYWGQGTLVTVSS
VL: DIQMTQSPSSLSASVGDRVTITCRASQGISNYLAWYQQKPGKAPKLLIYDASNLETGVPSRFSGSGSGTDFTLTISSLQPEDFATYYCQQSYSTPLTFGGGTKVEIKR
notes: scFv

- binding result (huCLL1-K244-Avi-Tev-His): binds
- binding result (huCLL1-Q244-Avi-Tev-His): binds
B19: Polypeptide No. 162 (scFv, V domains shown)
VH: QVQLVQSGAEVKKPGASVKVSCKASGYTFTNYGISWVRQAPGQGLEWMGWINPNSGGTNFAQKFQGRVTMTRDTSTSTVYMELSSLRSEDTAVYYCARGTNGDELDYWGQGTLVTVSS
VL: not shown
notes: scFv
